This is an account of results in the RNAGym collection of RNA variant scans (doi:10.7554/elife.80360).

Sequences and labels used below:
B1: CPEB3 Ribozyme (parent)
chain: GGGGGCCACAGCAGAAGCGUUCACGUCGCGGCCCCUGUCAGAUUCUGGUGAAUCUGCGAAUUCUGCUGU

This series covers variants of B1. Description: self-cleavage, relative activity (ratio to wild type); higher = more cleavage; co-transcriptional.
Consider GGGGGGCACAGCAGAACCGUUCACGUCGCGGCCCCUGUCAGAUUCUGGUGAAUCUGCGAAUUCUGCUGU [C6G G17C], for which the self-cleavage was 0.0719. In the case of GGGGGGCACAGCAGAAACGUUCACGUCGCGGCCCCUGUCAGAUUCUGGUGAAUCUGCGAAUUCUGCUGU [C6G G17A], the self-cleavage was 0.0588. With GGGGGGCACAGCAGAAGUGUUCACGUCGCGGCCCCUGUCAGAUUCUGGUGAAUCUGCGAAUUCUGCUGU [C6G C18U] the figure was 0.0723; with GGGGGGCACAGCAGAAGGGUUCACGUCGCGGCCCCUGUCAGAUUCUGGUGAAUCUGCGAAUUCUGCUGU [C6G C18G], 0.062; with GGGGGGCACAGCAGAAGAGUUCACGUCGCGGCCCCUGUCAGAUUCUGGUGAAUCUGCGAAUUCUGCUGU [C6G C18A], 0.0602. For GGGGGGCACAGCAGAAGCGUUCACGUCGCGGCCCCUGUCAGAUUCUGGUGAAUCUUCGAAUUCUGCUGU [C6G G56U] the value was 0.152.

Turning to GGGGGGCACAGCAGAAGCGUUCACGUCGCGGCCCCUGUCAGAUUCUGGUGAAUCUCCGAAUUCUGCUGU [C6G G56C], the self-cleavage worked out at 0.199. As to GGGGGGCACAGCAGAAGCGUUCACGUCGCGGCCCCUGUCAGAUUCUGGUGAAUCUACGAAUUCUGCUGU [C6G G56A], the self-cleavage turned out to be 0.204.

Consider GGGGGGCACAGCAGAAGCGUUCACGUCGCGGCCCCUGUCAGAUUCUGGUGAAUCUGCGAAUUCUGAUGU [C6G C66A], for which the self-cleavage turned out to be 0.18. For GGGGGGCACAGCAGAAGCGUUCACGUCGCGGCCCCUGUCAGAUUCUGGUGAAUCUGCGAAUUCUGUUGU [C6G C66U] the value was 0.316. Consider GGGGGGCACAGCAGAAGCGUUCACGUCGCGGCCCCUGUCAGAUUCUGGUGAAUCUGCGAGUUCUGCUGU [C6G A60G], for which the self-cleavage is 0.16. For GGGGGGCACAGCAGAAGCGUUCACGUCGCGGCCCCUGUCAGAUUCUGGUGAAUCUGCGAUUUCUGCUGU [C6G A60U] the value was 0.137; for GGGGGGCACAGCAGAAGCGUUCACGUCGCGGCCUCUGUCAGAUUCUGGUGAAUCUGCGAAUUCUGCUGU [C6G C34U], 0.304.

Take GGGGGGCACAGCAGAAGCGUUCACGUCGCGGCCGCUGUCAGAUUCUGGUGAAUCUGCGAAUUCUGCUGU [C6G C34G]: the self-cleavage stood at 0.0582. Take GGGGGGCACAGCAGAAGCGUUCACGUCGCGGCCCCUAUCAGAUUCUGGUGAAUCUGCGAAUUCUGCUGU [C6G G37A]: the self-cleavage is 0.0792.

Turning to GGGGGGCACAGCAGAAGCGUUCACGUCGCGGCCCCUCUCAGAUUCUGGUGAAUCUGCGAAUUCUGCUGU [C6G G37C], the self-cleavage amounted to 0.0619. In the case of GGGGGGCACAGCAGAAGCGUUCACGUCUCGGCCCCUGUCAGAUUCUGGUGAAUCUGCGAAUUCUGCUGU [C6G G28U], the self-cleavage was determined as 0.0241. With GGGGGGCAGAGCAGAAGCGUUCACGUCGCGGCCCCUGUCAGAUUCUGGUGAAUCUGCGAAUUCUGCUGU [C6G C9G], the self-cleavage came to 0.445. Regarding GGGGGGCAAAGCAGAAGCGUUCACGUCGCGGCCCCUGUCAGAUUCUGGUGAAUCUGCGAAUUCUGCUGU [C6G C9A], the self-cleavage was determined as 0.651. With GGGGGGUACAGCAGAAGCGUUCACGUCGCGGCCCCUGUCAGAUUCUGGUGAAUCUGCGAAUUCUGCUGU [C6G C7U] the figure was 0.176; with GGGGGGCACAGCAGAAGCGUUCACGUCGGGGCCCCUGUCAGAUUCUGGUGAAUCUGCGAAUUCUGCUGU [C6G C29G], 0.0434. For GGGGGGCACAGCAGAAGCGUUCACGUCGUGGCCCCUGUCAGAUUCUGGUGAAUCUGCGAAUUCUGCUGU [C6G C29U] the value was 0.0888; for GGGGGGCACAGCAGAAGCGUUCAUGUCGCGGCCCCUGUCAGAUUCUGGUGAAUCUGCGAAUUCUGCUGU [C6G C24U], 0.193; for GGGGGGCACAGCAGAAGCGUUCAAGUCGCGGCCCCUGUCAGAUUCUGGUGAAUCUGCGAAUUCUGCUGU [C6G C24A], 0.0804.

For GGGGGGCACAGCAGAAGCGUUCAGGUCGCGGCCCCUGUCAGAUUCUGGUGAAUCUGCGAAUUCUGCUGU [C6G C24G], the self-cleavage was 0.085. Regarding GGGGGGCACAGCAGAAGCGUUCACGUCGCGGCCCCUGUCAGAUUCUGGUGAAUCUGCGAAUUUUGCUGU [C6G C63U], the self-cleavage was determined as 0.262. On to GGGGGGCACAGCAGAAGCGUUCACGUCGCGGCCCCUGUCAGAUUCUGGUGAAUCUGCGAAUUGUGCUGU [C6G C63G], for which the self-cleavage worked out at 0.149. As for GGGGGGCACAGCAGAAGCGUUCACGUCGCGGCCCCUGUCAGAUUCUGGUGAAUCUGCGAAUUAUGCUGU [C6G C63A], the self-cleavage was 0.185.

As to GGGGGGCACAGCAGAAGCAUUCACGUCGCGGCCCCUGUCAGAUUCUGGUGAAUCUGCGAAUUCUGCUGU [C6G G19A], the self-cleavage is 0.0949. As to GGGGGGCACAGCAGAAGCCUUCACGUCGCGGCCCCUGUCAGAUUCUGGUGAAUCUGCGAAUUCUGCUGU [C6G G19C], the self-cleavage worked out at 0.0471. With GGGGGGCACAGCAGAAGCUUUCACGUCGCGGCCCCUGUCAGAUUCUGGUGAAUCUGCGAAUUCUGCUGU [C6G G19U] the figure was 0.0686; with GGGGGGCACAGCAGAAGCGUUCACGUCGCCGCCCCUGUCAGAUUCUGGUGAAUCUGCGAAUUCUGCUGU [C6G G30C], 0.133; with GGGGGGCACAGCAGAAGCGUUCACGUCGCAGCCCCUGUCAGAUUCUGGUGAAUCUGCGAAUUCUGCUGU [C6G G30A], 0.172. Consider GGGGGGCACAGCAGAAGCGUUCACCUCGCGGCCCCUGUCAGAUUCUGGUGAAUCUGCGAAUUCUGCUGU [C6G G25C], for which the self-cleavage was 0.0497. With GGGGGGCACAGCAGAAGCGUUCACUUCGCGGCCCCUGUCAGAUUCUGGUGAAUCUGCGAAUUCUGCUGU [C6G G25U], the self-cleavage was determined as 0.0634. GGGGGGCACAGCAGAAGCGUUCACGUCGCGGCCCCUGUCAUAUUCUGGUGAAUCUGCGAAUUCUGCUGU [C6G G41U]: the self-cleavage was found to be 0.252.

As to GGGGGGCACAGCAGAAGCGUUCACGUCGCGGCCCCUGUCAAAUUCUGGUGAAUCUGCGAAUUCUGCUGU [C6G G41A], the self-cleavage stood at 0.122. GGGGGGCACAGCAGAAGCGUUCACGUCGCGACCCCUGUCAGAUUCUGGUGAAUCUGCGAAUUCUGCUGU [C6G G31A]: the self-cleavage is 0.753. For GGGGGGCACAGCAGAAGCGUUCACGUCGCGUCCCCUGUCAGAUUCUGGUGAAUCUGCGAAUUCUGCUGU [C6G G31U], the self-cleavage was determined as 0.967.
